We go through 1 substance from patent publication US20090060915A1.

What all share (experiment): cell-based or functional assay
The target of assay [1] is endogenous angiomotin of bovine capillary endothelial (BCE) cells (p80- and p130-isoforms) (bovine).
The target of assay [2] is p130-angiomotin (Homo sapiens (Human)) (UniProt Q4VCS5).
For assay [3], the target named is p80-angiomotin (Homo sapiens (Human)) (UniProt Q4VCS5).

The substance “Human angiostatin (kringle 1-4) (from UniProt P00747 99-459) (ligand)” displayed a decrease in bFGF-stimulated migration of hTERT+-BCE cells, migration chamber assay in assay [1] of 85%. Besides, in assay [2], the decrease in bFGF-stimulated migration of MAE cells expressing p130-angiomotin, Boyden chamber, angiostatin 5 ug/ml amounted to 160%; the decrease in motility of CHO cells expressing p130-angiomotin, Boyden chamber is 50%; the invasion of Matrigel by human cytotrophoblasts, angiostatin 5 ug/ml was determined as 3 fold. In assay [3], this substance came in with a decrease in bFGF-stimulated migration of MAE cells expressing p80-angiomotin, Boyden chamber, angiostatin 5 ug/ml of 175%; a decrease in motility of CHO cells expressing p80-angiomotin, Boyden chamber of 50%; an invasion of Matrigel by human cytotrophoblasts, angiostatin 5 ug/ml of 3 fold.
